{
  "source": "patent US20260248917A1",
  "about": "“BICYCLIC PEPTIDE LIGANDS SPECIFIC FOR EPHA2 AND USES THEREOF” (BicycleTx Limited, priority 2019, published 2026)",
  "format_in_all_cases": "physicochemical",
  "key": {"[1]": {"assay": "Reconstitution time of lyophilized product", "settings": "21.2 mg/vial reconstituted with 5.3 mL 0.02 M HCl, versus 0.01 M HCl", "method": "(§1) The lyophilized product was placed on stability and tested for 1 month (according to Table 1-9) at accelerated storage of 25° C./60% RH. The lyophilized product was assessed by means of appearance, moisture content, and assay and related substances by UPLC. The reconstituted product was assessed on the basis of reconstitution time, solution appearance, pH and sub-visible particulates (T=0 only).\nFormulations 1 to 4 had significant adsorptive properties with the drug product adsorbing onto the glass vial above and in the reconstituted solution. Formulation 5 (2 mg/mL BT5528) produced the best results with drug product adsorbing only slightly above the solution and no adsorption noted within the solution. Variability in reconstitution time derives from the analytical procedure deviating throughout the testing of formulation 1. This occurred due to the severe adsorptive nature of formulation 1. For the 4 mg/mL solution agitation occurred immediately after addition of reconstitution medium producing a severe adsorptive spread above the solution. A settle period before agitation was performed for the 2 mg/mL producing a better reconstitution performance although adsorption was still noted. For the 1.3 mg/mL solution a settle period of 5 minutes was performed to minimize the agitation required. […]"}, "[2]": {"assay": "Appearance of solution (bulk or reconstituted), visual", "settings": "4 mg/mL bulk solution", "method": "(§2) The bulk solution appearance, pH, density and BT5528 assay/related substances were recorded. Additional samples were subjected to three freeze (−20° C.)/thaw cycles, assessing appearance, pH, UPLC and sub-visible particulates (MFI) after each cycle.\nas §1"}, "[3]": {"assay": "pH of bulk or reconstituted solution", "settings": "4 mg/mL bulk solution", "method": "as §2, §1"}, "[4]": {"assay": "Density of final solution", "settings": "filtered 4 mg/mL solution", "method": "as §2\nThe pH of the solution was measured and adjusted to target (pH 6.8-7.2). The pH was 7.79 pH after the addition of API and was adjusted to 7.19 pH using 0.1 M HCl solution. The solution was transferred to a 20 mL volumetric flask and make to final volume with WFI. The solution was filtered through a single 0.22 μm, PES membrane syringe filter. The final solution was a clear, colourless solution which was free from any visible particulates. The density of the final solution was measured, 1.025 g/cm^3. A pre- and post-filtration sample was passed to analytical for HPLC analysis. The remaining bulk solution was filled in 2 mL volumes into 2 mL glass vials and subjected to three, freeze/thaw cycles."}},
  "data": [
    {"substance": "BT5528: Bicycle toxin conjugate; TATA scaffold; peptide ligand (β-Ala)-Sar10-A(HArg)D-Ci(HyP)LVNPLCiiLHP(D-Asp)W(HArg)Ciii (SEQ ID NO: 1)", "values": [
      {"measurement": "reconstitution time and appearance of the reconstituted product (oily droplet formation)", "setting": "[1]", "result": "improved"},
      {"measurement": "Appearance", "setting": "[2]; Freeze Thaw Cycle 1 (−20° C.)", "result": "Clear, colourless solution free"},
      {"measurement": "Appearance", "setting": "[2]; Freeze Thaw Cycle 2", "result": "Clear, colourless solution free"},
      {"measurement": "Appearance", "setting": "[2]; Freeze Thaw Cycle 3", "result": "Clear, colourless solution free"},
      {"measurement": "Appearance", "setting": "[2]; Post Filtration", "result": "Clear, colourless solution free"},
      {"measurement": "Appearance", "setting": "[2]; Pre Filtration", "result": "Clear, colourless solution free"},
      {"measurement": "pH", "setting": "[3]; Freeze Thaw Cycle 1", "result": 7.3},
      {"measurement": "pH", "setting": "[3]; Freeze Thaw Cycle 2", "result": 7.3},
      {"measurement": "pH", "setting": "[3]; Freeze Thaw Cycle 3", "result": 7.3},
      {"measurement": "pH", "setting": "[3]; Pre Filtration", "result": 7.2},
      {"measurement": "density of the final solution", "setting": "[4]", "result": 1.025, "unit": "g/mL"}
    ]}
  ]
}
